In patent publication US20220098240A1 (FUJIFILM, published 2022):
Bridge positions count the residues as written; N and C are the ends. Square brackets hold non-standard residues; d marks the D form. Ends that are not written are not given here. COCH2 = acetyl group that carries the bridge; Pen = CC(C)(S)[C@H](N)C(=O)O; hCys = N[C@@H](CCS)C(=O)O; Orn = NCCC[C@H](N)C(=O)O; Dab = NCC[C@H](N)C(=O)O; Dap = NC[C@H](N)C(=O)O

Target: T1, human integrin αvβ5 (human, UniProt P06756 31-992; P18084 24-719)
T1 construct: soluble analyte in SPR at 30, 100, 300 and 1,000 nM in HEPES buffer with 5 mM magnesium chloride; heterodimer of an alpha and a beta chain
Experiment: SPR, Biacore 3000, peptide immobilised on CM5 chip, integrin 30-1000 nM flowed; grade A = dissociation constant 50 nM or less
Description: (§1) However, only for the cyclic peptide 22, in which the number of lysine residues having an amino group as the immobilizing functional group was 1, the sample solution to be supplied to the sensor chip was set to 5,000 μL instead of 300 μL. Similarly, 70 μL of the mixed aqueous solution of 0.2 M EDC and 0.04 M NHS was added to another flow channel of the same sensor chip without immobilizing the sample, and then blocking treatment and washing treatment were carried out. Hereinafter, the obtained immobilization-treated sensor chip is referred to as an “immobilization-treated sensor chip A”.
(§2) After adding human integrin αvβ5 for 10 minutes at 25° C., which was diluted to 30 nM using a HEPES buffer solution to which magnesium chloride was added to 5 mM, in each flow channel of the immobilization-treated sensor chip A prepared in (1) above, the same HEPES buffer solution (containing 5 mM magnesium chloride) was allowed to flow as a running buffer for 30 minutes, and measurement was carried out with Biacore 3000.
(§3) Then, a regeneration treatment of removing human integrin αvβ5 was carried out by allowing a 0.5 M EDTA aqueous solution to flow through each flow channel for 10 minutes. Further, the above-described measurement process consisting of adding integrin for 10 minutes, allowing a running buffer to flow for 30 minutes, carrying out measurement with Biacore 3000, and carrying out regeneration treatment with 0.5 M EDTA aqueous solution was carried out in the same manner for 100 nM human integrin αvβ5, 300 nM human integrin αvβ5, and 1,000 nM human integrin αvβ5. Dissociation constant between the cyclic peptide and human integrin αvβ5 was calculated from the difference between the value measured by Biacore 3000 in the flow channel immobilized with the cyclic peptide and the value measured by Biacore 3000 in the flow channel unimmobilized with the cyclic peptide, in a case where each concentration of human integrin αvβ5 was allowed to flow, and the integrin binding property was evaluated according to the following evaluation standards. It is preferable that the evaluation result satisfies the evaluation standard A, B, or C.

T1 sequence (P06756 31-992, chain 1 of 2): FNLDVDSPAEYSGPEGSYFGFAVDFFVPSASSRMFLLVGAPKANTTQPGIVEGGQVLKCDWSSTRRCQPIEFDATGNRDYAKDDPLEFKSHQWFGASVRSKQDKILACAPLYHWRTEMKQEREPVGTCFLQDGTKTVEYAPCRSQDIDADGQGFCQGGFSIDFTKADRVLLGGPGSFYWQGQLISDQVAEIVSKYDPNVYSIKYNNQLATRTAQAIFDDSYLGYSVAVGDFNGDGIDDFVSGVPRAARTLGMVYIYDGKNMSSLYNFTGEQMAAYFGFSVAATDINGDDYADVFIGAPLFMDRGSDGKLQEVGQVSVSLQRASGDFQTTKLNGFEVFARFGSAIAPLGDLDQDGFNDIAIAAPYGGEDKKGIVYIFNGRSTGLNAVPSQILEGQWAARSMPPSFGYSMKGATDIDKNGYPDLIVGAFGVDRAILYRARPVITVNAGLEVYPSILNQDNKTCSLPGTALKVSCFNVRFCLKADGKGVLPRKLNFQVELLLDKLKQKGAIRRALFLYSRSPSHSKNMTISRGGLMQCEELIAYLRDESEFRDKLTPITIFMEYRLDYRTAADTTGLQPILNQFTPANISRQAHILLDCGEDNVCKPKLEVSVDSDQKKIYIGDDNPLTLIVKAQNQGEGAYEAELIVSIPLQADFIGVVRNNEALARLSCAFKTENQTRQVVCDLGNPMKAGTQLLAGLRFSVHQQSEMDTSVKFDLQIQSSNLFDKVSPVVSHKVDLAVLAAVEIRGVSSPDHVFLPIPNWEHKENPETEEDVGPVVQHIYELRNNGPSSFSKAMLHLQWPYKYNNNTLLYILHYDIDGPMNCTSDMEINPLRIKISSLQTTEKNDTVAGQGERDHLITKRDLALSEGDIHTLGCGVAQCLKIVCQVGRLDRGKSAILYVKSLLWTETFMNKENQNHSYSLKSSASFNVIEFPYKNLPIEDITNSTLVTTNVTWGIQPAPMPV
T1 sequence (P18084 24-719, chain 2 of 2): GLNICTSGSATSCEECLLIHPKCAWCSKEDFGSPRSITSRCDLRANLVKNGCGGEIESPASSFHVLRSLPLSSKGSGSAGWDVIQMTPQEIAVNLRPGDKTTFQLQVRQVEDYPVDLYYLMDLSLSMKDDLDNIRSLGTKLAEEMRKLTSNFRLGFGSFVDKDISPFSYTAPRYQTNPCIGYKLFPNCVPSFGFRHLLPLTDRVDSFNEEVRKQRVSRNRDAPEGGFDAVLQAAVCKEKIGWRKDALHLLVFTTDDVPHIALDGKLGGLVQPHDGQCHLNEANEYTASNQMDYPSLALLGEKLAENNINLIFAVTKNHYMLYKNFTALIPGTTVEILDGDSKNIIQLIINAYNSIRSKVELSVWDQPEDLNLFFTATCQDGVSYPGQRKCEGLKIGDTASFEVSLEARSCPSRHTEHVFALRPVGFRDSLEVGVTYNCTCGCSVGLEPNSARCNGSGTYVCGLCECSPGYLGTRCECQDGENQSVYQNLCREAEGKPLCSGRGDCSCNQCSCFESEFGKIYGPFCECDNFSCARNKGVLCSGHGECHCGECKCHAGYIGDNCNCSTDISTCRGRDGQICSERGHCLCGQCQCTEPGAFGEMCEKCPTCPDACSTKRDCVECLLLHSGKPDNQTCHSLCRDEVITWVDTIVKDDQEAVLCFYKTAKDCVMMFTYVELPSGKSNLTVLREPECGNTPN

Row | Binder | dissociation constant [nM] | dissociation constant (KD) [nM]
1 | {CH2CO}-V[hCys]RGDK(COCH2)F[hCys]KKK (thioether 2-6, N-8) [Cyclic peptide 28] | < 50 | 
2 | {CH2CO}-I[hCys]RGDK(COCH2)F[hCys]AKKK (thioether 2-6, N-8) [Cyclic peptide 35] | < 50 | 
3 | {CH2CO}-I[hCys]RGDK(COCH2)FCKKK (thioether 2-6 via Ac; thioether N-8; not fully specified, bicyclic; all residues L; immobilised on CM5 chip through amino groups) [Cyclic peptide 17] |  | ≤ 50
4 | {CH2CO}-I[Orn](COCH2)RGD[hCys]FCKKK (thioether 2-6 via Ac; thioether N-8; not fully specified, bicyclic; all residues L; immobilised on CM5 chip through amino groups) [Cyclic peptide 15] |  | ≤ 50
5 | {CH2CO}-E[Orn](COCH2)RGD[hCys]F[hCys]KKK (thioether 2-6, N-8) [Cyclic peptide 40] | < 50 | 
6 | {CH2CO}-D[Orn]RGD[hCys]F[hCys]KKK (thioether N-8; bridge 2-6; not fully specified (residue 2, bridges)) [Cyclic peptide 39] | < 50 | 
7 | {CH2CO}-KCRGDCFCKKK (disulfide 2-6; thioether N-8, bicyclic comparative peptide; all residues L; immobilised on CM5 chip through amino groups) [Cyclic peptide 48] | ≤ 50 | 
8 | {CH2CO}-ICRGD[Dab](COCH2)F[hCys]KKK (thioether 2-6 via Ac; thioether N-8; not fully specified, bicyclic; all residues L; immobilised on CM5 chip through amino groups) [Cyclic peptide 20] |  | ≤ 50
9 | {CH2CO}-D[hCys]RGD[Orn](COCH2)F[hCys]KKK (thioether 2-6, N-8) [Cyclic peptide 42] | < 50 | 
10 | {CH2CO}-D[hCys]RGDK(COCH2)F[hCys]AKKK (thioether 2-6, N-8) [Cyclic peptide 45] | < 50 | 
11 | {CH2CO}-ICRGDK(COCH2)F[hCys]KKK (thioether 2-6 via Ac; thioether N-8; not fully specified, bicyclic; all residues L; immobilised on CM5 chip through amino groups) [Cyclic peptide 18] |  | ≤ 50
12 | {CH2CO}-Y[hCys]RGDK(COCH2)F[hCys]KKK (thioether 2-6, N-8) [Cyclic peptide 25] | < 50 | 
13 | {CH2CO}-E[hCys]RGD[Orn](COCH2)F[hCys]KKK (thioether 2-6, N-8) [Cyclic peptide 43] | < 50 | 
14 | {CH2CO}-ICRGD[Dab](COCH2)FCKKK (thioether 2-6 via Ac; thioether N-8, bicyclic; all residues L; immobilised on CM5 chip through amino groups) [Cyclic peptide 8] |  | ≤ 50
15 | {CH2CO}-I[Orn](COCH2)RGD[hCys]F[Pen]KKK (thioether 2-6, N-8) [Cyclic peptide 23] |  | < 50
16 | {CH2CO}-D[hCys]RGDK(COCH2)F[hCys]KKK (thioether 2-6, N-8) [Cyclic peptide 29] | < 50 | 
17 | {CH2CO}-E[hCys]RGD[Orn](COCH2)F[hCys]AKKK (thioether 2-6, N-8) [Cyclic peptide 47] | < 50 | 
18 | {CH2CO}-E[hCys]RGDK(COCH2)F[hCys]KKK (thioether 2-6, N-8) [Cyclic peptide 30] | < 50 | 
19 | {CH2CO}-E[Orn]RGD[hCys]F[Pen]KKK (thioether N-8; bridge 2-6; not fully specified (residue 2, bridges); printed as E RGD- -F-(Pen)-KKK) [Cyclic peptide 24] |  | < 50
20 | {CH2CO}-V[hCys]RGDK(COCH2)F[hCys]AKKK (thioether 2-6, N-8) [Cyclic peptide 44] | < 50 | 
21 | {CH2CO}-E[hCys]RGDK(COCH2)F[hCys]AKKK (thioether 2-6, N-8) [Cyclic peptide 46] | < 50 | 
22 | {CH2CO}-V[Orn](COCH2)RGD[hCys]F[hCys]KKK (thioether 2-6, N-8) [Cyclic peptide 38] | < 50 | 
23 | {CH2CO}-I[hCys]RGDK(COCH2)F[hCys]K (thioether 2-6, N-8) [Cyclic peptide 22] |  | < 50
24 | XCRGDXFCKKK (not fully specified; thioether: I1 alpha-NH2 through acetyl to C8; thioether: C2 to K(acetyl)6, bicyclic; all residues L; immobilised on CM5 chip through amino groups) [Cyclic peptide 12] |  | ≤ 50
25 | {CH2CO}-T[hCys]RGDK(COCH2)F[hCys]KKK (thioether 2-6, N-8) [Cyclic peptide 27] | < 50 | 
26 | {CH2CO}-I[Dap](COCH2)RGDCF[hCys]KKK (thioether 2-6 via Ac; thioether N-8; not fully specified, bicyclic; all residues L; immobilised on CM5 chip through amino groups) [Cyclic peptide 14] |  | ≤ 50
27 | {CH2CO}-I[Orn](COCH2)RGD[hCys]F[hCys]KKK (thioether 2-6, N-8) [Cyclic peptide 3] |  | < 50
28 | XXRGDXFXKKK (not fully specified; thioether: L1 alpha-NH2 through acetyl to Hcy8; thioether: Hcy2 to K(acetyl)6) [Cyclic peptide 26] | < 50 | 
29 | {CH2CO}-I[hCys]RGDK(COCH2)F[hCys]KKK (thioether 2-6, N-8) [Cyclic peptide 11] |  | < 50
30 | ACDCRGDCFCGKKK (disulfide 2-10, 4-8, bicyclic comparative peptide; all residues L; immobilised on CM5 chip through amino groups) [Cyclic peptide 49] | ≤ 50 | 

Target: T1, human integrin αvβ5
Experiment: SPR, Biacore 3000, peptide immobilised on CM5 chip, integrin 30-1000 nM flowed; grade B = dissociation constant more than 50 nM and 100 nM or less
Description: as §1, §2, §3

Row | Binder | dissociation constant [nM] | dissociation constant (KD) [nM]
31 | {CH2CO}-I[hCys]RGDK(COCH2)FA[hCys]KKK (thioether 2-6, N-9) [Cyclic peptide 34] | 50 to 100 | 
32 | K[Dap]RGD[hCys]F[hCys]KKK (bridge N-8, 2-6; not fully specified (N-terminus, bridges); printed as K RGD- -F-(Hcy)-KKK) [Cyclic peptide 21] |  | 50 to 100
33 | A[hCys][hCys]RGDK(COCH2)FK(COCH2)KKK (thioether 2-9, 3-7) [Cyclic peptide 36] | 50 to 100 | 
34 | {CH2CO}-I[hCys]RGDK(COCH2)Y[hCys]KKK (thioether 2-6, N-8) [Cyclic peptide 32] | 50 to 100 | 
35 | {CH2CO}-I[hCys]RGDK(COCH2)P[hCys]KKK (thioether 2-6, N-8) [Cyclic peptide 31] | 50 to 100 | 
36 | {CH2CO}-I[hCys]RGD[Dap](COCH2)F[hCys]KKK (thioether 2-6, N-8) [Cyclic peptide 5] |  | 50 to 100
37 | {CH2CO}-I[Dap](COCH2)RGD[hCys]F[hCys]KKK (thioether 2-6, N-8) [Cyclic peptide 1] |  | 50 to 100
38 | {CH2CO}-V[hCys]RGD[Orn](COCH2)F[hCys]KKK (thioether 2-6, N-8) [Cyclic peptide 41] | 50 to 100 | 
39 | {CH2CO}-IK(COCH2)RGD[hCys]F[hCys]KKK (thioether 2-6, N-8) [Cyclic peptide 4] |  | 50 to 100
40 | KKK[hCys][hCys]RGDK(COCH2)FK(COCH2)A (thioether 4-11, 5-9) [Cyclic peptide 37] | 50 to 100 | 
